Experimental findings from the supplement of paper PMC9112550, “Optimization of the antimicrobial peptide Bac7 by deep mutational scanning” (BMC Biology, 2022) are described below.
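Note: peptides expressed intracellularly from a pBAD plasmid library in pooled LB shake-flask culture, induced with 0.3% L-arabinose, DNA abundance read by NGS, three biological replicates, DESeq2 with apeglm shrinkage.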

The subject of the series is Escherichia coli TOP10. Nature of the series: shrunken log2 fold change of peptide-encoding DNA abundance (4.5 h post-induction vs induction); higher = less antimicrobial activity (less host growth inhibition). To be noted: time post-induction: 4.5 h; library: site-saturation at positions 5, 18, 19, 20.
Consider RRIRERPPRLPRPRPRPARRPRP, for which the “shrunken log2 fold change” value stood at 0.539.

For RRIRSRPPRLPRPRPRPVPEPRP, the “shrunken log2 fold change” value was found to be 0.563. Regarding RRIRTRPPRLPRPRPRPYAAPRP, the “shrunken log2 fold change” value is -0.445. Take RRIRCRPPRLPRPRPRPLMYPRP: the “shrunken log2 fold change” value was -0.606. The value for RRIRARPPRLPRPRPRPQHNPRP was -0.26. The figure for RRIRRRPPRLPRPRPRPPAKPRP is 1.35; for RRIRFRPPRLPRPRPRPMKKPRP it is -0.0398. Regarding RRIRQRPPRLPRPRPRPYLNPRP, the “shrunken log2 fold change” value was -0.329. The figure for RRIRARPPRLPRPRPRPDEVPRP is 0.446; for RRIRQRPPRLPRPRPRPHDMPRP it is -0.364. The figure for RRIRARPPRLPRPRPRPSHQPRP is -0.138; for RRIRPRPPRLPRPRPRPFGIPRP it is -0.21. In the case of RRIRRRPPRLPRPRPRPKYCPRP, the “shrunken log2 fold change” value amounted to 0.0144. With RRIRARPPRLPRPRPRPPVQPRP, the “shrunken log2 fold change” value was 0.227. With RRIRPRPPRLPRPRPRPDNQPRP, the “shrunken log2 fold change” value was -0.357.

With RRIRYRPPRLPRPRPRPHDAPRP, the “shrunken log2 fold change” value was -0.27. The figure for RRIRWRPPRLPRPRPRPFNHPRP is -0.405; for RRIRSRPPRLPRPRPRPCLPPRP it is -0.133; for RRIRARPPRLPRPRPRPKDCPRP it is 0.181. Consider RRIRYRPPRLPRPRPRPHFCPRP, for which the “shrunken log2 fold change” value is -0.428. The figure for RRIRWRPPRLPRPRPRPGQIPRP is -0.0275. In the case of RRIRYRPPRLPRPRPRPAPQPRP, the “shrunken log2 fold change” value was determined as 0.416. The figure for RRIRYRPPRLPRPRPRPAQFPRP is 0.0198; for RRIRERPPRLPRPRPRPTMWPRP it is -0.421. The figure for RRIRTRPPRLPRPRPRPYNSPRP is -0.00162; for RRIRYRPPRLPRPRPRPILRPRP it is -0.172.

Take RRIRKRPPRLPRPRPRPYPFPRP: the “shrunken log2 fold change” value came out at 0.00884. On to RRIRLRPPRLPRPRPRPKAKPRP, for which the “shrunken log2 fold change” value turned out to be 0.0705.

For the sequence RRIRCRPPRLPRPRPRPFWQPRP, the “shrunken log2 fold change” value was -0.0799.

As to RRIRRRPPRLPRPRPRPDGGPRP, the “shrunken log2 fold change” value came to 0.149. The value for RRIRDRPPRLPRPRPRPEWCPRP was 0.272; that for RRIRQRPPRLPRPRPRPYPWPRP was -0.266; that for RRIRFRPPRLPRPRPRPQTSPRP was -0.449. The value for RRIRTRPPRLPRPRPRPSTVPRP was 0.0213. The value for RRIRHRPPRLPRPRPRPMRAPRP was 0.686; that for RRIRWRPPRLPRPRPRPWLVPRP was -0.237; that for RRIRKRPPRLPRPRPRPWDTPRP was -0.00122. RRIRRRPPRLPRPRPRPASRPRP: the “shrunken log2 fold change” value was determined as 0.202.

With RRIRMRPPRLPRPRPRPFCYPRP, the “shrunken log2 fold change” value is -0.117. The value for RRIRRRPPRLPRPRPRPHPRPRP was 1.03. The figure for RRIRPRPPRLPRPRPRPYPPPRP is -0.537; for RRIRRRPPRLPRPRPRPRCAPRP it is 0.469. For the sequence RRIRARPPRLPRPRPRPLLIPRP, the “shrunken log2 fold change” value was -0.0375. Take RRIRGRPPRLPRPRPRPKSWPRP: the “shrunken log2 fold change” value turned out to be 0.925.

Consider RRIRERPPRLPRPRPRPTSHPRP, for which the “shrunken log2 fold change” value was -0.239. Take RRIRFRPPRLPRPRPRPCFGPRP: the “shrunken log2 fold change” value is -0.0611.

In the case of RRIRWRPPRLPRPRPRPTMQPRP, the “shrunken log2 fold change” value came to 0.13. For the sequence RRIRSRPPRLPRPRPRPKEWPRP, the “shrunken log2 fold change” value is -0.0193. In the case of RRIRLRPPRLPRPRPRPTESPRP, the “shrunken log2 fold change” value came out at 0.0515.

For RRIRIRPPRLPRPRPRPPWWPRP, the “shrunken log2 fold change” value came out at 0.516. The figure for RRIRLRPPRLPRPRPRPNSGPRP is -0.095; for RRIRRRPPRLPRPRPRPTGLPRP it is 0.0398. Turning to RRIRCRPPRLPRPRPRPMQYPRP, the “shrunken log2 fold change” value was -0.000361.

With RRIRARPPRLPRPRPRPHDCPRP, the “shrunken log2 fold change” value was -0.16.

Take RRIRYRPPRLPRPRPRPMYNPRP: the “shrunken log2 fold change” value was -1.23. On to RRIRTRPPRLPRPRPRPAWIPRP, for which the “shrunken log2 fold change” value is -0.27. For the sequence RRIRERPPRLPRPRPRPKHWPRP, the “shrunken log2 fold change” value came out at 0.0518. The value for RRIRWRPPRLPRPRPRPCGCPRP was -0.0615. As for RRIRERPPRLPRPRPRPTPNPRP, the “shrunken log2 fold change” value amounted to 0.0742. In the case of RRIRLRPPRLPRPRPRPAIPPRP, the “shrunken log2 fold change” value is -0.0222. The value for RRIRGRPPRLPRPRPRPARIPRP was 0.208; that for RRIRLRPPRLPRPRPRPPQWPRP was 0.322. The figure for RRIRTRPPRLPRPRPRPQMFPRP is 0.0287; for RRIRRRPPRLPRPRPRPCHNPRP it is -0.278; for RRIRNRPPRLPRPRPRPSLWPRP it is 0.159.

On to RRIRQRPPRLPRPRPRPCWFPRP, for which the “shrunken log2 fold change” value is -0.257. In the case of RRIRDRPPRLPRPRPRPTVRPRP, the “shrunken log2 fold change” value is 0.0184.

As for RRIRIRPPRLPRPRPRPKCTPRP, the “shrunken log2 fold change” value is -0.233. For RRIRFRPPRLPRPRPRPDWRPRP, the “shrunken log2 fold change” value turned out to be 0.0737. For the sequence RRIRCRPPRLPRPRPRPWLCPRP, the “shrunken log2 fold change” value was -0.182. As for RRIRTRPPRLPRPRPRPDRSPRP, the “shrunken log2 fold change” value was -0.287. For RRIRKRPPRLPRPRPRPQKSPRP, the “shrunken log2 fold change” value was determined as 0.0653. As to RRIRPRPPRLPRPRPRPRVKPRP, the “shrunken log2 fold change” value was -0.0194. The figure for RRIRGRPPRLPRPRPRPIDAPRP is 0.674; for RRIRERPPRLPRPRPRPQHSPRP it is -0.597. For RRIRRRPPRLPRPRPRPFECPRP, the “shrunken log2 fold change” value was 0.036.

On to RRIRDRPPRLPRPRPRPKAWPRP, for which the “shrunken log2 fold change” value was 0.107.

For the sequence RRIRFRPPRLPRPRPRPDPIPRP, the “shrunken log2 fold change” value worked out at 0.159. Regarding RRIRKRPPRLPRPRPRPISKPRP, the “shrunken log2 fold change” value was -0.357. As to RRIRPRPPRLPRPRPRPCEQPRP, the “shrunken log2 fold change” value stood at 0.102. The value for RRIRCRPPRLPRPRPRPFYYPRP was -0.97; that for RRIRIRPPRLPRPRPRPPIHPRP was -0.614; that for RRIRCRPPRLPRPRPRPRSSPRP was -0.138. The figure for RRIRARPPRLPRPRPRPAAIPRP is 0.845; for RRIRYRPPRLPRPRPRPKEKPRP it is -0.0829; for RRIRLRPPRLPRPRPRPNPYPRP it is -0.0545. With RRIRDRPPRLPRPRPRPTHPPRP, the “shrunken log2 fold change” value came out at 0.263. The figure for RRIRARPPRLPRPRPRPDPWPRP is 0.308; for RRIRQRPPRLPRPRPRPETRPRP it is -0.0113.

Take RRIRSRPPRLPRPRPRPEKPPRP: the “shrunken log2 fold change” value amounted to 0.014. The value for RRIRCRPPRLPRPRPRPWATPRP was 0.00822; that for RRIRERPPRLPRPRPRPNPTPRP was 0.00617; that for RRIRVRPPRLPRPRPRPKMRPRP was 0.329. The value for RRIRSRPPRLPRPRPRPPDEPRP was 0.813; that for RRIRIRPPRLPRPRPRPRFAPRP was 0.129; that for RRIRFRPPRLPRPRPRPEMQPRP was 0.0943. On to RRIRTRPPRLPRPRPRPDTMPRP, for which the “shrunken log2 fold change” value was determined as 0.0881. The value for RRIRHRPPRLPRPRPRPWSDPRP was -0.138. Turning to RRIRKRPPRLPRPRPRPRESPRP, the “shrunken log2 fold change” value came to 0.159. On to RRIRVRPPRLPRPRPRPTWAPRP, for which the “shrunken log2 fold change” value was 0.194. The value for RRIRGRPPRLPRPRPRPFRPPRP was 0.021. The value for RRIRTRPPRLPRPRPRPWVCPRP was -1.58.

With RRIRLRPPRLPRPRPRPDRYPRP, the “shrunken log2 fold change” value was -0.063. The figure for RRIRNRPPRLPRPRPRPSHPPRP is 0.186. The value for RRIRSRPPRLPRPRPRPNNVPRP was -0.592; that for RRIRERPPRLPRPRPRPYSFPRP was -0.0431; that for RRIRWRPPRLPRPRPRPRFSPRP was 0.0681. As for RRIRNRPPRLPRPRPRPLSYPRP, the “shrunken log2 fold change” value was -0.319.

On to RRIRDRPPRLPRPRPRPAMEPRP, for which the “shrunken log2 fold change” value is -0.0517.

In the case of RRIRTRPPRLPRPRPRPRVCPRP, the “shrunken log2 fold change” value came out at 0.369. Regarding RRIRCRPPRLPRPRPRPLNPPRP, the “shrunken log2 fold change” value was -0.185.

In the case of RRIRRRPPRLPRPRPRPPVRPRP, the “shrunken log2 fold change” value worked out at 0.437.

Take RRIRHRPPRLPRPRPRPRHCPRP: the “shrunken log2 fold change” value came out at 0.03.

Take RRIRDRPPRLPRPRPRPTTIPRP: the “shrunken log2 fold change” value was -0.121. For the sequence RRIRCRPPRLPRPRPRPWCHPRP, the “shrunken log2 fold change” value was -0.463. RRIRARPPRLPRPRPRPIKCPRP: the “shrunken log2 fold change” value is -0.249. The value for RRIRCRPPRLPRPRPRPCFQPRP was -0.212; that for RRIRYRPPRLPRPRPRPNFVPRP was -0.0161. For RRIRCRPPRLPRPRPRPMTTPRP, the “shrunken log2 fold change” value came to 0.151. On to RRIRCRPPRLPRPRPRPIDFPRP, for which the “shrunken log2 fold change” value is -0.458.

In the case of RRIRHRPPRLPRPRPRPKIFPRP, the “shrunken log2 fold change” value is -0.0798. The value for RRIRWRPPRLPRPRPRPCSTPRP was 0.137; that for RRIRERPPRLPRPRPRPFPHPRP was -0.15. The value for RRIRPRPPRLPRPRPRPQPAPRP was 0.0892; that for RRIRVRPPRLPRPRPRPWETPRP was 0.0394.
